Measurements as given in the supplement of paper PMC12455559.

experiment: purified protein yield per well (BCA); higher = higher soluble expression
Outline: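 Candidate enzymes were expressed in E. coli C41(DE3) in 2 mL autoinduction cultures with 100 µg/mL kanamycin, at 37 °C for 2 h and then 18 °C for 40 h. Cells were lysed, and protein was bound to Ni-charged magnetic beads and released by SUMO protease cleavage on an OT-2 robot. The read-out is purified protein yield per well, measured with the Pierce Rapid Gold BCA kit. Values below 25 ug (0.1 mg/mL) are below the detection threshold.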

Purified protein yield per well, < 25 µg:
GQSCDSLLLQSITNPGPFPVNNIDENSGIRNGPNYNGSTIYYPANNVNTLYSSIIMVPGFMNTELTIQNWGPFFASHGIITMTIGANGLTDTHIQRRDALLDAIVSLKNENQRVASPLFGKIDTFSIAVGGVSKGGGGAQLVPAIDLSIKAIVSLYPWLDNPTSSDLNHSVPVIIISGQLDALAPPSLHADIHYNLTPNTTNKLKYEVAFGTHDVISGPNGGNGEVGIRVISWLQNFLLSDSCYCPITILDASTSSSYITNVVCSNTTVGISQLEPYFLKKVLKIIDVLGREAEGNKNEPLFYIYNDGTVEKKIIIE [TEP017], GRMDSNVIDASGYSDLSLSFDRTTSGLDFGESGRVSVSINGGSFTVLESLRRASGRTTLQLGSSADNSSIQIRYQTFASSFYEIYTIDNIVIEGNSDSPPPPPPTGDLAAIGAYLETGGTATTPDQFSFTNTGDINIDSLTIDLSGGNASPVFDPNGVSFTVTGSDNVGFSGNFGLSGNSLLTLNFIDFGPGETFSFSGDLDDSNGSYTTGADVMGAELTVSASGNPSVSASFTVDSSNADRAVVNIGGSTPPPPIGGGCGPDPTVASLEASTGPFSFSNIDVPSSAQGFRNGTIYYPTNAPSDCTFGVISVVPGFLANESSIDWWGPRLASHGFIVITINTNTITDQPNSRALQSIAALNYAVNLGNSSSSAIGGKVDSSKQGVMGWSMGGGGALRAAADNPYLKAAMPQAPFNSGPNDFDEITVPTLIIACENDTVASVGIHASPFYNAISSTTEKGFLEINNGNHSCANGGSNRDILGKYGVSWMKRFMDDDTRYSQFLCDVNHTSDSAISDYRENCPY [TEP172], HAPAHAPAHQPVVAHHHAPFAVRTTVVPKTAVKAFGGGVIYTPQDTGKAVLGAVVITPGFTDTNADEKELAELVASQGFVAFAIDTLDTGDLPDQRATEILAAADYLTGQSAVRSEVSAKDVGLIGYSFGGGGTMQAAQARPSIKAAIGLMPFDFPPASDPNAQYPAYPKLTTPTLVITGQKDDVADPADFGKPAYDSIPGGTPKQYLELKGLDHYAGEHTPVAAIRNAVTAFLKRYLDGNSAYAKLICPAPKVGGPITASYSSCPKG [ESM190], HAPAPQPVVVHHHAPFAVRTTVVPKTAVKAFGGGVIYTPQDTGKPVLGAVVITPGFTNTNADEKELGQLVASQGFVAFVIDTLDTGDLPAQRATEILAATDYLTGQSAVRSEVSAKDVGLIGYSFGGGGTMQAAQSRPSIKAAIGLMPFDVPPASDPHALYATYPKLTTPTLVITGQKDEVARPKDFGKPAYDSIPAGTPKQYLELKGLDHSAGEHAPVAAIRNAVTAFLKRYLDGNSAYAKFICPAPKVGGPISVSLSSCPKG [ESM155], HAPVHQPAVAHHHAPFAVRTTAVPKTAVTTFGGGVIYTPQDTGKAVLGAVVITPGFTDTNADEKEMAELVASQGFVAFAIDTLDTSDLPAQRSTEILAAADYLTGQSAVKSQVSAKDVGLIGYSFGGGGTMEAAQARPSIKAAIGLMPFDFPDANDPNAQYATYPKLTTPTLVITGEKDDVATPKDYGKPAYDSIPAGTPKQYLELKGLGHGAGEHVPVPTIRNAVTAFLKRYLDGNSAYAKFICPAPKVGGPISVSLSSCPKG [TEP026], HGFNGGYIYYPTDTSQTFGAVAIVPAYTALFADEEAWMGPRLASFGFVVIGIETNSREDWDRARGAQLLAGLDYLTQHSAVRTRIDARRLAVIGHSMGGGGAFAAAARRPSLRAVVGLTPYFPSGDLATIRVPTLIIGGQNDTTVTPSYLERLYASLPTRTPSAYVMLADADHLFPTKPNPDQMRVLVPWLKIFVDKDVRYTRFLCPLADRSGISQYQVTCPLVPTV [TEP043], IENGPAPTFSSVQADGPFAVSTQTVRGSGFGGGTVYSPNTAGKYAVVAVCPGFTATQTSIALISRRLATHGFVVVTINTNTVYDYPASRANQLLAALRTVTALTTGPVAGKMDTSRQAVSGWSMGGGGAMLAAGMTPGLKAGVAFAPWSLTNNVGSSAVPMAYLAGTADTVAPASVHSSVFYNATPATTKKLIGVIQGADHYFPGTASQPASYTQVAWMKRFLDGDTRYSQFLNGDTRFATFRSTGPF [ESM109], IENGPAPTLADLQKDGPYAVTSQVVKGSGFGGGTVYSPNTAGKYALVAVCPGFVSPQSSMTDMSKRLATHGFVVVAITTNTLFDFPSSRATQLLAALKTVAALNTGAAAGKIDITRQVVSGWSMGGGGTLEAAGVTPGLTAAVAFAPWDTATTKMKTLTVPVAIFGGTNDTIAPVSGHSQKFYDIIPATTKKMLAVITGADHFFPTKASEPTSYSNISWVKRFADGDTRYSQFLNGQDAALASFTSTGPF [ESM138], IRETRVSSSVRGFGGGTIYYPTGTSGTMGAIVVIPGFVSPESSIAWWGPKLASHGFVVMTIATNRTTDQPSSRATQINAALDYLISQNSTSGSPVRNMIDTDRLGVMGWSMGGGGTLRVASQNRLKAAIPLAPYDTISFRNVDAPTLIFGCESDTVAPVRNHASPFYNQIPAGTDKAFVELNGGSHTCANGGNQYLSLIHI [ESM057], ITPPPDDDGNNGGGDTCQQDCGFERGPNPTVASLESRSGPFSVRTSSVSSRVSGFGGGTIHYPTGQTGTMGAIVVIPGFVSAESSIAWWGTQLAAHGFVVMTIDTNSGTDQPPSRARQINAALDYLVSQNTASGSPVRGMIDPSRLGVAGWSMGGGGTLRVATEGRIKAAMPLAPWDTGSTQFRSVKAQTLIFACESDAIAPVNSHASPFYNALPNNINKAFVEISRGSHYCANGGNSNNSLLSRLGVSWMKLHLDQDQRYNQFICGPRHESDRSISEYRGNCSN [ESM115], IYTMVDTLSLHDALPISQYRKIPDSKYHLFIKRFYKGFLNLSLWEVRYMSNRLFRARRTVFSVLILFAFMISFVAAIPGVSYASPPIVRYDYAPGKYSGNGPYSYSTYQLPGWSHGATVYYPTNASAPFSGIVFCPPYTGTQIMFRDWGPFFASHGIVLVTMDTSSILISVDERAVEQRTVLNLLKAENSRSGSPLYQKLDTDRVGAMGWSMGGGATWINSAEYPGLKTAMSLAGHNLTAININSKGFGTQCPTIIFCGALDTTYLGGMLQSETVYYNIPSGVPKVYYEVGTAGHFVWGGPTDANDHVAELALAFQKTFLDGDDRWEGFIEKPRFDYLSTFRSRN [TEP185], LKADGPYAVSSQTVKGNGFGAGTVYSPNTPGKYAVVAVCPGFVSAESSMTAISKRLATHGFVVVTIATNTLFDFPSSRATQLLAALKTVTALTTGPVAGKMDTSRQGVSGWSMGGGGTLEAAGATPGLVSAVAYAPWDTSTTKMKVNKVPVAIIGGSADTVASVSAHSQKFYDAIPATTPKMLPVINGADHFFPTKASEPASYHNI [ESM072], LQMQSLINIGPLQISEINESMGLRNGTDYNGATIYYPINQNNLSSIVLVPGFMNTELTIQNWGPFFASHGIITMTIGTNSLTDTHVQRRDALFDAIISLKQENQRIASPLFGKLDTSSIAVGGFSKGGGGAQLLAKFDPSLKAVVALYPWLENVTASDLEHTVPLIIISGQLDAIAPPFLHADIQYNLTPMTTKKLKYEVAFASHDAISGPYAGNGEVGARVLSWLNTFLVTDSCYCPLLLEQPITSSSYTTNIVCSNLFTNIYESNKSYSKEIIEIRDLYGRKVKFSNSRILIYIYNDGSYEKKITL [TEP016], LTLDDLKKDGPYAISAQTIPASGFGKGTVYSPNTPGKYALVAVCPGFVSAESSITEISKRLATHGFVVVTIGTKTLLDFPSSRASQLLAALKAASAVTTGPAAGKIDVTRQVVAGWSMGGGGTLEAAAATPGLKAAVAYAPWNLSSSKYKSITVPSAIIGGTADSVAPVSSHSQPFYNAIPATTPKLLGVIQGADHFFPNKAAEPASYTNIAWVKRFADGDTQYGVFLRGQDAAWASFVSTGPF [ESM117], LTLDDLKKDGPYAVSSQTIPGSGFGKGTIYSPNAAGKYALVAVVPGFVSAESSMTEISKRLATHGFVVVTIGTKTLLDFPSSRASQLLAALKAASAVTTGPVAGKIDVTRQVVSGWSMGGGGTLEAAASTPGLKAAVAYAPWNLSSTKYKAITVPSAIIGGTADTVASVSAHSQPFYNAIPATTRKLLGVIQGADHFFPNKAVDPASYTNIAWVKRFADGNTAYAPFLAGQDAAWASFVSTGPF [ESM087], LWLGLGGVLSLIGFVVIGVETNSRTDYDVARGTQLLAALDYLTQQSPVRNRVDPNRLGVIGHSMGGGGVVYATEHRPALKAAVALAPFSPSQNMSTDTVPTMVMAGQNDTVVTPSYLSGLYATMPAATQSDFLQIAGADHVYYTHPNSVEMRILIPWIKTFLDNDTRYTQVICPGLAL [TEP112], MAAGGLVAAQAAGAQAAPAQAAAANPYERGPAPTEASIEAARGSYAVSQTTVSSLSVSGFGGGTVYYPTSTSDGTFGAVVISPGYTAYQSSIAWLGPRLASQGFVVFTIDTLTTLDQPDSRGRQLLAALDYLTQSSSVRTRIDSSRLGVMGHSMGGGGTLEAAKSRPSLQAAIPLTGWNLDKTWPEIKTPTLIVGADGDTIAPVATHSEPFYESLPSSLDKAYLELNGATHFTPNSSNTTIAKYSISWLKRFIDNDTRYEQFLCPLPRPSLTIDEYRGNCPHTS [TEP052], MASITNPGPYSVSLLIEGVDDIRNGPDYDGATIYYPSNGVPPYAGIAIIPGYCGVETDIENWGPFYASHGIIAITLGTNNPCADWPAVRALALLDAIETIKSENTREGSPLNGKVDVNSFAVSGWSMGGGGAELAASIDPSLKAVVGLCPWLDLNGFETSDLIHDVPVLIFTGQNDDIAGSAEYGYMHYTNTPNSTDKLYFEIENEGHEAANAPNMAGGEKGIYALSWLTI [TEP051], MASVAAQYGPFATAQITVPPGNGFNGGFIYYPTDTSHTYGAVAIVPGYTALFANEEAWMGPRLASFGFVVIGVETNNRNDYDTARGTQLLAALDYLTNSSAVRDRVDRNRLSVIGHSMGGGGALYAATQRPSLKAAIGLAPFKPSGNLASDNVPTMIIGGINDTTVTPSYLDGLYPTLPASTPGAYIQLANADHLYFTRPNDIELRSQIEWLKIFVDNDTRYTQFLCPSIKDTTGIVRSSVKCSTIPSGGSTPPSSPSVPPSSPPSGPQRILGSQSGRCVDVPNATHDNGTRVQLYDCNGQANQQWTYTSSKQLTVYGNVCLDAAGSGNGSAVQIYSCNGQPNQQWNVNANGTITGVQSGRCLDVWGTGNGQQFQLWDCNGQANQRFGLS [ESM074], MCHISAPVPPRAPGCPQFAHWLEVRAVLGSNGAFPTSGRTGADPSGARGTGGRWRRGVAALSTAAVLGALTVVGAVQSASGADNPYQRGPDPTASYVSGSRGSFATAQVSVPAGNGFGGGVIYHPTDTTQGTFGAIAVVPGYTATWAAEGAWMGHWLASFGFVVIGIDTNGREDWDTARGTQLLAALDYLTQRSSVRDRVDASRTAVMGHSMGGGGAMYAALQRPSLKTTVGLAPFSPSQNLTNLRVPAMLLSGQNDTTTTPSSIVNLYNGIPAATEKAYLELSGVGHSFPTSSNPTMMRNVIPWLKIFIDSDTRYTQFLCPLSNSNGIRSYQNTCPLVPSSVPTTSSTTTSTSTTTTTTTTTTTTTTTSVPVGACSASFRTTNTWPGGYQGEVTVTAGSSAVNGWTVQWTLDSGQSISQVWNGTLSVSGSAVSVRNVSYNGSLPPNASATFGFIGGGSPSTSPFTCTSP [ESM077]
